# Reference: patent US6887705B1, “Tyrosine phosphorylated cleavage furrow-associated proteins (PSTPIPs)” (Genentech, Inc., priority 1997, dated 2005)
# Substitutions are numbered along the chain they refer to. Names may count otherwise.
# B1: GST-PSTPIP (GST fusion of full-length PSTPIP, amino acids 2-415) (other)
# chain: MAQLQFRDAFWCRDFTAHTGYEVLLQRLLDGRKMCKDVEELLRQRAQAEERYGKELVQIARKAGGQTEMNSLRTSFDSLKQQTENVGSAHIQLALALREELRSLEEFRERQKEQRKKYEAIMDRVQKSKLSLYKKTMESKKAYDQKCRDADDAEQAFERVSANGHQKQVEKSQNKAKQCKESATEAERVYRQNIEQLERARTEWEQEHRTTCEAFQLQEFDRLTILRNALWVHCNQLSMQCVKDDELYEEVRLTLEGCDVEGDINGFIQSKSTGREPPAPVPYQNYYDREVTPLIGSPSIQPSCGVIKRFSGLLHGSPKTTPSAPAASTETLTPTPERNELVYASIEVQATQGNLNSSAQDYRALYDYTAQNSDELDISAGDILAVILEGEDGWWTVERNGQRGFVPGSYLEKL
# notes: Made in DH5-alpha bacteria from pGEX4T-2; also called GST-full-length PSTPIP; GST PTP PIP; not shown: glutathione S-transferase encoded by pGEX-4T-2 (Pharmacia)
# B2: W232A mutant of PST PIP, C-terminal FLAG (other)
# chain: MMAQLQFRDAFWCRDFTAHTGYEVLLQRLLDGRKMCKDVEELLRQRAQAEERYGKELVQIARKAGGQTEMNSLRTSFDSLKQQTENVGSAHIQLALALREELRSLEEFRERQKEQRKKYEAIMDRVQKSKLSLYKKTMESKKAYDQKCRDADDAEQAFERVSANGHQKQVEKSQNKAKQCKESATEAERVYRQNIEQLERARTEWEQEHRTTCEAFQLQEFDRLTILRNALAVHCNQLSMQCVKDDELYEEVRLTLEGCDVEGDINGFIQSKSTGREPPAPVPYQNYYDREVTPLIGSPSIQPSCGVIKRFSGLLHGSPKTTPSAPAASTETLTPTPERNELVYASIEVQATQGNLNSSAQDYRALYDYTAQNSDELDISAGDILAVILEGEDGWWTVERNGQRGFVPGSYLEKLDYKDDDDK
# notes: In vitro translated or expressed in COS cells; also called W232A PST PIP; PST PIP with an alanine replacement mutation at tryptophan232
# Assays:
# [1] = molecular target: T1, PTP HSCF with R436 mutated to alanine, HA tagged (UniProt Q61152 1-453); test: in vitro translated PTP HSCF mutant precipitated with 1 or 10 µg/ml GST PST PIP
# T1 construct: range 1-453; also called HSCF R436
# T1 sequence (looked up): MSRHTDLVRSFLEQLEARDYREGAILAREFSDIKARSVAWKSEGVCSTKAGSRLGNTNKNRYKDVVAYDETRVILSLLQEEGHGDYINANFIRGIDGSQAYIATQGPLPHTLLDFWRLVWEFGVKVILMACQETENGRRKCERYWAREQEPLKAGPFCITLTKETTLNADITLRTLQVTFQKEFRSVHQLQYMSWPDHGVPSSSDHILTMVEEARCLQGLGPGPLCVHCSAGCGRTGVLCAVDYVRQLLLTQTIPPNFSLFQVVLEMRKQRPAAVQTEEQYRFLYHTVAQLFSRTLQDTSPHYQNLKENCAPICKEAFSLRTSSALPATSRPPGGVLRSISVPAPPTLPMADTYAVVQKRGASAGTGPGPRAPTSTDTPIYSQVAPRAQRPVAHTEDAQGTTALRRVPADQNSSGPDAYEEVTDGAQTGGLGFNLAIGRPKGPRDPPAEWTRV
# Experimental: Multiple bands precipitated with the GST PST PIP fusion protein are apparently C-terminal proteolyzed products of the PTP. Also shown are GST PST PIP precipitations (10 μg/ml) performed on a double mutant of PTP HSCF (R+W) with both residues $R444$ and $W450$ mutated to alanine (bottom panel FIG. 14 A/2). B. COS cells were co-transfected with a 10:1 ratio of plasmids encoding hemagglutinin (HA) tagged PTP HSCF with the illustrated alanine substitutions or a mutant of PTP HSCF deleted for the C-terminal 24 amino acids (PTP $HSCFD24$) and wild type PST PIP with a C-terminal FLAG epitope tag, respectively. Transfected cell lysates were immunoprecipitated with anti-HA monoclonal antibodies and the precipitates were blotted with anti-PST PIP polyclonal antibody to detect the relative amounts of PST PIP complexed with either wild type or different mutant forms of PTP HSCF. Lysates were also immunoprecipitated with anti-HA antibody and blotted with the same antibody to insure equal expression of PTP HSCF. Equal expression of PSTPIP was determined by immunoprecipitating lysates with anti-FLAG monoclonal antibody and blotting with anti-PST PIP polyclonal antibody.
# In vitro binding analyses between various PTP HSCF and PST PIP constructs were performed as previously described (Spencer et al, (1997), supra). Briefly, plasmids were transcribed and translated in vitro using the TnT Rabbit Reticulocyte Lysate System (Promega). Samples were diluted in 50 mM HEPES, pH 7.2, 1% triton X-100, 10% glycerol, 100 mM NaCl, and 2 µg/ml each of leupeptin, pepstatin, aprotinin and PMSF (lysis buffer). Samples were than reacted with GST fusion proteins at various concentrations, and the bound proteins were centrifuged using glutathione-sepharose beads and analyzed on SDS polyacrylamide gels. C-terminally-derived peptide inhibition studies were performed by incubating the GST fusion protein binding reactions in the presence of 10 µg/ml of the indicated peptides. Peptides were produced by FMOC-protected amino acids as previously described (Spencer et al, (1997), supra). In vivo interactions between various forms of PTP HSCF and PST PIP were also performed as previously described (Spencer et al, (1997), supra).
# [2] = molecular target: T2, full-length PTP HSCF with an N-terminal hemagglutinin epitope tag (UniProt Q61152 1-453); test: co-immunoprecipitation from co-transfected COS cells
# T2 construct: range 1-453; In vitro translated or expressed in COS cells; also called the phosphatase; wild type PTP HSCF
# T2 sequence (looked up): T1 sequence (looked up) with A436R
# From the text: The resultant precipitates were resolved on SDS polyacrylamide gels and probed with anti-FLAG antibody (to detect PST PIP), anti-HA antibody (to detect PTP HSCF) and anti-pY (anti-phosphotyrosine antibody) to detect this modified residue on these proteins. Note that the $W232A$ mutant of PST PIP is neither coprecipitated with PTP HSCF nor is it "substrate trapped" (as determined by hyperphosphorylation) by the dominant negative (C-S) form of PTP HSCF, while the wild type form of the protein (PST PIP wt) is found in a complex with precipitated PTP HSCF and is hyperphosphorylated ("substrate trapped" (Jia et al., *Science* 268(5218):1754–1758 (1995); Garton et al., *Mol. Cell. Biol.* 16(11):6408–6418 (1996); Flint et al., *Proc. Natl. Acad. Sci. USA* 94(5):1680–1685 (1997); Spencer et al. (1997), supra)) by dominant negative (C-S) PTP HSCF.
# In vitro binding analyses between various PTP HSCF and PST PIP constructs were performed as previously described (Spencer et al, (1997), supra). Briefly, plasmids were transcribed and translated in vitro using the TnT Rabbit Reticulocyte Lysate System (Promega). […] Samples were than reacted with GST fusion proteins at various concentrations, and the bound proteins were centrifuged using glutathione-sepharose beads and analyzed on SDS polyacrylamide gels. […]
Binder,binding result [1],binding result [2]
B1,binds,–
B2,–,no binding
